Literature values as cited in article PMC9900175.

Target: CD200R (Homo sapiens) (UniProt Q8TD46)
Chain of UniProt Q8TD46 (Q8TD46 25-265): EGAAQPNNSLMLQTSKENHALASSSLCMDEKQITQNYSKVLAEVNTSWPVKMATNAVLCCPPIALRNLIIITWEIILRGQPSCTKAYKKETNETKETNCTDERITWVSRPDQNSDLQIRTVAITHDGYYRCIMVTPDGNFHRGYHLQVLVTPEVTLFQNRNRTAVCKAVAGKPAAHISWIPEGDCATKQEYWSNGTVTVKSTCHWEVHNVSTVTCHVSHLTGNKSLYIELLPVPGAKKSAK

**Q.** For CD200 (from UniProt P41217), which Kd is on record?
**A.** 500 nM
